US20190300577A1

Legend:
[1] = target: recombinant human P-selectin Fc chimera (human) (UniProt P16109); assay: comparator value given with the Biacore results; method not stated
[2] = target: recombinant mouse P-selectin Fc chimera (mouse) (UniProt Q01102); assay: Biacore; biotinylated glycopeptide captured on a streptavidin chip, mP-sel-Ig flowed over (trace shown at 20 µg/ml) [lower middle panel 'mP-sel-Ig (20 µg/ml)' (E in the legend]
[3] = target: recombinant mouse L-selectin Fc chimera (mouse) (UniProt P18337); assay: flow cytometry; inhibition of mouse L-selectin Fc chimera binding to murine neutrophils
recombinant mouse L-selectin Fc chimera (mouse), sequence (P18337 39-332, change not shown): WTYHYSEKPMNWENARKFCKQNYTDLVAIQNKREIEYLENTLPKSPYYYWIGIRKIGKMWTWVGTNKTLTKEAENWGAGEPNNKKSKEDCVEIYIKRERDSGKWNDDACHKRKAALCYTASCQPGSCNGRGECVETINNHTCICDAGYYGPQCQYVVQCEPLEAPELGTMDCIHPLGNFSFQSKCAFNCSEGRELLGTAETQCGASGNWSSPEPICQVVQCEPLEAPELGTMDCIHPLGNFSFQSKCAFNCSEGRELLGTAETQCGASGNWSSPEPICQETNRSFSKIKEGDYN

[4] = target: recombinant human L-selectin Fc chimera (human) (UniProt P14151); assay: flow cytometry; inhibition of human L-selectin Fc chimera binding to human U-937 cells
recombinant human L-selectin Fc chimera (human), sequence (P14151 39-332, change not shown): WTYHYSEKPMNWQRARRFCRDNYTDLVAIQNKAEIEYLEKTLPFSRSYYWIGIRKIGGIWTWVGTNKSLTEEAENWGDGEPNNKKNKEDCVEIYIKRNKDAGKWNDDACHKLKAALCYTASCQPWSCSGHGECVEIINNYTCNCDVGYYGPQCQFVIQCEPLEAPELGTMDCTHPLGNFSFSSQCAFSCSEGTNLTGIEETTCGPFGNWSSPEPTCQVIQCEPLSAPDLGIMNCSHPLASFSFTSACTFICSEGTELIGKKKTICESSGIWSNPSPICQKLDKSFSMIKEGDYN

[5] = target: recombinant human P-selectin Fc chimera (human) (UniProt P16109); assay: flow cytometry; inhibition of human P-selectin Fc chimera binding to human peripheral blood monocytes
[6] = target: recombinant human P-selectin Fc chimera (human) (UniProt P16109); assay: Biacore; biotinylated glycopeptide on streptavidin chip, P-sel-Ig (2.5 to 60 µg/mL) flowed
[7] = target: recombinant human P-selectin Fc chimera (human) (UniProt P16109); assay: flow cytometry; inhibition of human P-selectin Fc chimera binding to human U-937 cells
selectins on endothelium = assay: cell-based or functional assay
[8] = target: recombinant human P-selectin Fc chimera (human) (UniProt P16109); assay: flow cytometry; inhibition of human P-selectin Fc chimera binding to human peripheral blood PMN
[9] = target: recombinant human P-selectin Fc chimera (human) (UniProt P16109); assay: Biacore; biotinylated glycopeptide on streptavidin chip, P-sel-Ig flowed
[10] = target: recombinant mouse P-selectin Fc chimera (mouse) (UniProt Q01102); assay: as above
[11] = target: recombinant mouse P-selectin Fc chimera (mouse) (UniProt Q01102); assay: flow cytometry; inhibition of mouse P-selectin Fc chimera (2 µg/mL) binding to murine PMN

recombinant mouse P-selectin Fc chimera (mouse), sequence (Q01102 42-709, change not shown): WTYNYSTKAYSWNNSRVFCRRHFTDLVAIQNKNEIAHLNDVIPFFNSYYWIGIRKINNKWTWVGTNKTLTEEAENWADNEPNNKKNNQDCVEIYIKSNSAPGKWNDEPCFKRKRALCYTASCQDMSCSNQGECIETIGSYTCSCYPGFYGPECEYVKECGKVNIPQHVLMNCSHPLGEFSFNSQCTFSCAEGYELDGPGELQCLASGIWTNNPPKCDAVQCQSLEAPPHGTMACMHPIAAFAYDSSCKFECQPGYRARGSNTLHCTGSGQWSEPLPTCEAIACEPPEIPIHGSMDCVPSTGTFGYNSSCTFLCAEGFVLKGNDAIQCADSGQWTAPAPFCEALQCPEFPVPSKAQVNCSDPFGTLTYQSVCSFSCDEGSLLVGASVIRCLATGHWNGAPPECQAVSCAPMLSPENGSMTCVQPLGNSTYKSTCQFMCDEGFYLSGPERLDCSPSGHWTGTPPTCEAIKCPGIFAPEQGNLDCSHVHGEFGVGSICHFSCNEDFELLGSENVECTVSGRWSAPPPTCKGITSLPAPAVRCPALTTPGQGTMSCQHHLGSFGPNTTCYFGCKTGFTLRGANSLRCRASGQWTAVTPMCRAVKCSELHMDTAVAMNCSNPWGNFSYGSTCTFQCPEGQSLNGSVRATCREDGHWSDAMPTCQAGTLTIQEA
recombinant human P-selectin Fc chimera (human), sequence (P16109 42-771, stated change not applied): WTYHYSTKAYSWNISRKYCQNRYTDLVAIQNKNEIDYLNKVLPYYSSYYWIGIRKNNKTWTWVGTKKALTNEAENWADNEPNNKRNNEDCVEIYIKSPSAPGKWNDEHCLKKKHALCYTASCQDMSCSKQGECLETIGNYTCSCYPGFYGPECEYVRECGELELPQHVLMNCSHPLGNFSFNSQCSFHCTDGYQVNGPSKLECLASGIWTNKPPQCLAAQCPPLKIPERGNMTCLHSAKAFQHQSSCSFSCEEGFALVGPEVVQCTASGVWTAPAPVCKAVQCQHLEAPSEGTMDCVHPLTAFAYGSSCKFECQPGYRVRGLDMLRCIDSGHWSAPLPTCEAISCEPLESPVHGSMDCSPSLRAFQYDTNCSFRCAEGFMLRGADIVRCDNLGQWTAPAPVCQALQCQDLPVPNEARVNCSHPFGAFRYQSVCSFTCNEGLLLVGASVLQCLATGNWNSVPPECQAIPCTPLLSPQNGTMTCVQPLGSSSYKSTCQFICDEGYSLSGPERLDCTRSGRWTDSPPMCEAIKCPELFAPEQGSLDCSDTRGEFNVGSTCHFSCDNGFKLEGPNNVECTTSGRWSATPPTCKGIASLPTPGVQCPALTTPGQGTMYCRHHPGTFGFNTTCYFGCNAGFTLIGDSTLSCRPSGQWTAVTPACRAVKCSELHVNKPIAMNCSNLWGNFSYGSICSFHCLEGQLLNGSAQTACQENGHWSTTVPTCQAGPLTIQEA

Kd [1] [µM] | Kd [2] [µM] | IC50 [3] [µM] | IC50 [4] [µM] | IC50 [5] [µM] | Kd [6] [µM] | IC50 [7] [µM] | mean leukocyte rolling velocity (intravital microscopy, murine cremaster venules, GSnP-6 IV) (selectins on endothelium) [µm/s] | IC50 [8] [µM] | kon [9] [M⁻¹ s⁻¹] | fold difference of Kd against human P-selectin [10] [fold] | kon [10] [M⁻¹ s⁻¹] | IC50 [11] [µM] | Substance
0.073 |  |  |  |  |  |  |  |  |  |  |  |  | native PSGL-1 (from UniProt Q14242 42-412) (ligand)
 | 0.186 | > 50 | 30 | 30 | 0.022 | 8 | 74.9 | 30 | 310000 | 9 | 49000 | 15 | GSnP-6 (peptide)
